Laboratory results taken from the RNAGym collection of RNA variant scans (doi:10.1073/pnas.2313332121).

B1: TPR t1 (parent)
chain: GACCAAUCUGCCCUCAGAGCUCGAGAACAUCUUCGGAUGCAGAGGAGGCAGGCUUCGGUGGCGCGAUAGCGCCAACGUCCUCAACCUCCAAUGCAUCCCACCACAUGAUGAUGCCUGAAGAGCCUUGGUUUUUUG

Variants of: B1
Assay: polymerase ribozyme fitness, log enrichment relative to wild type (log ratio); higher = more active; in vitro selection for triplet polymerase activity
How it was run: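 One round of in vitro selection, in triplicate, was applied to PCR-built, transcribed mutant libraries of each subunit of a heterodimeric triplet polymerase ribozyme. The steps were annealing with a biotinylated primer, partner subunit and triplets, incubation frozen at −7 °C, gel excision of extended constructs, streptavidin-bead capture and RT-PCR. Fitness is the logarithm, base 2, of genotype enrichment over wild-type enrichment from inverse-variance-weighted replicate averages of Illumina-sequenced inputs and outputs, keeping genotypes with ≥10 input reads and ≥1 read per output.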

In order of rising “polymerase ribozyme fitness (log ratio)” value:
1. G25U C64A C98G A111U  -8.01
2. C28A A74C G117U  -7.34
3. C34U G44A G69A  -7.2
4. C40A G48A G61A U92A C94U A105G  -7.09
5. U33G G63C U112G U129A  -7.08
6. G45U C99A G117C  -6.81
7. G47U G61C A90U G117C  -6.8
8. U33G C79G  -6.57
9. G35U G39A C80G C97U C114A  -6.51
10. C8A G51U U59A A83U C85G U106A  -6.35
11. C70A C73U C99U G107U U109C G117U  -6.35
12. A37G U59C A103U G110C G122A  -6.29
13. C8G G45A G48A G57A G61U U92G U112G  -6.23
14. U9A G39U G48A C72G C88U C89U G110C  -6.13
15. U7A C73G C80G  -6.07
16. C115G G117C  -5.84
17. A5U C28U C62G  -5.59
18. U78A G107A  -5.55
19. C70A C114U U125A  -5.48
20. G65A G110A  -5.47
21. G61C C114U G127U  -5.3
22. C15U G47C G48U C62G A100U C124U  -5.24
23. A18C C22G G63A U130G  -5.14
24. G65C C124A  -4.91
25. A41C U81G C115A  -4.91
26. C4G C11A A16G A37U G69A G77C G113U C124U  -4.9
27. A46U G65A  -4.9
28. G63U C80A  -4.88
29. G71A C94U C102A U112G G120A  -4.87
30. A46G C72U C73G G117C  -4.79
31. U14C G113A A118U  -4.79
32. C3U G48U C49G C99U  -4.65
33. U33A C114U  -4.64
34. A43C C53G G61U G128A  -4.58
35. C62U C86U G117C U132A  -4.51
36. A29G A43C G122A  -4.45
37. A46U U54G G69U U78C G117U  -4.42
38. G60A C97A  -4.41
39. A18G G19A A43C C56U C70U G110A  -4.41
40. C3G A50U C94G  -4.4
41. C13G G47C A95C  -4.32
42. C22U C40G  -4.26
43. C11A C28U G36A U81A C85U G120A  -4.25
44. A24U C123U  -4.2
45. C4U C15U G57U A100C  -4.18
46. G19U U55G C123A  -4.18
47. U32C A41U C89G G93U  -4.07
48. C73A C88A G117U  -4.07
49. G61U G110U A111U  -4.03
50. A5G C56A G69A C86A  -3.95
51. G52U A111U  -3.93
52. C15U C49A C62U U116A A121C U131G  -3.93
53. A29G U92A  -3.71
54. C28U G63A C88U  -3.69
55. G71U G110C  -3.69
56. A43G G63A G77C A90G G127U G135C  -3.69
57. G39U C114G  -3.65
58. G44U A46C A95G  -3.59
59. G44U A46C G52U G61U C124A  -3.53
60. A16G C40U A43U C72G  -3.42
61. G42C A50U  -3.32
62. C8U G47C G52A G113A  -3.3
63. G47U A111C  -3.27
64. C88A A100U C115U  -3.24
65. A46C C80A  -3.23
66. G10C A43G  -3.12
67. G69A U130C  -3.09
68. C79G C101A  -3.09
69. A83G C114A  -3.07
70. C11G A16U G47C G60A  -3.03
71. A2G C20G G71C G113C  -3
72. U59C C62U C85A C115U  -2.93
73. C12G C40U G47C C79U C82G C123A U130C  -2.93
74. A6U C12U C76A C115U  -2.81
75. A16U G52U A111C U126G G127U  -2.8
76. C15U C56G  -2.76
77. C86G C115U  -2.67
78. C53G U116A  -2.67
79. C3G U59G C88U C115A  -2.65
80. C11G C12G C49U U55G A91G  -2.61
81. A24G G52A C115U  -2.59
82. G10U A29U C53G  -2.58
83. C56U C114G  -2.54
84. G17U C101U  -2.53
85. A37C G45C A111G C124U  -2.52
86. G44C C72G C88U C101U  -2.47
87. G71U U78A C80U C114G  -2.44
88. G48A G117A  -2.44
89. A16C A83C U106C C115U U125C  -2.38
90. G39A A46U G61A U129A  -2.38
91. C8U A46U G61A C101A G113U  -2.36
92. U78C C85G U106A  -2.34
93. A16U C73U A83U A95C  -2.3
94. G39C A50U C53U U78G  -2.26
95. G63U U134C  -2.26
96. G44U C114U  -2.25
97. U106A G117U  -2.19
98. C28U U129G  -2.18
99. A111U U132A  -2.14
100. A2C C8G G48U G71A C101U  -2.14
101. G51U C56U  -2.11
102. G77C C85U  -1.99
103. U21A A50U G61U U130A  -1.97
104. C56U G113C  -1.97
105. A18U G44C C73A A90C  -1.95
106. A46C G93U  -1.86
107. U55C C115G G122A  -1.84
108. U54A G60A U78C C89U G120A U126A  -1.78
109. A29G A41G C56A G61A C124A  -1.77
110. C72U C76A C98U  -1.75
111. G61C U133A  -1.7
112. A27G G71A  -1.68
113. C22U G69U C94G  -1.67
114. A5C A50U G69A U81A A121C  -1.62
115. C4G U9G A43U  -1.6
116. C62A C115A  -1.58
117. G17A U112A  -1.5
118. G44U G57U C89U C104U  -1.47
119. A26G C62U  -1.47
120. G77A C80U G113A  -1.46
121. A6U G36C  -1.42
122. G60U U129A  -1.37
123. C49A G110A  -1.34
124. C88A G122A  -1.31
125. G39A C85U  -1.3
126. A74C U96G  -1.28
127. G10A A66G  -1.17
128. U78C A91G  -1.15
129. G57U G69U C115U G128A  -1.11
130. G39A G71A  -1.08
131. G47C C104U  -1.08
132. G71C G113A A121G U133A  -1.06
133. G52C C115A  -1.03
134. C8A C40G C88A A111C  -1.02
135. C4U C72G  -0.855
136. A5G C72G  -0.844
137. G122A U129C  -0.808
138. C4A G63U A119G  -0.807
139. C12G U132A  -0.729
140. C53G C76G A100U  -0.651
141. G58U U59A A74U C88A  -0.539
142. C4U G10U G52U C88G C123U  -0.494
143. A2G C12A  -0.474
144. G61C C124A  -0.457
145. C13U U78C C80U  -0.408
146. C13U A16C  -0.368
147. C15A G39A G61A C123U  -0.349
148. G42U C72A  -0.339
149. A118G G120C  -0.275
150. C4U C11G C101U  -0.238
151. C8A C12U C40U C86U  -0.152
152. A6U C8G G60A C72A U130C  -0.0324
153. U21C C88G A121U  -0.0258
154. C13G C56U U112C  0.0684
155. C12U U125A  0.114
156. G61A G93U A111G  0.181
157. U7C C101U C104U  0.219
158. C40G U55A G63U C124U  0.229
159. A2C C13U G77A C123U  0.26
160. U9C C104U G122A  0.29
161. C62U G71C G120U A121C  0.341
162. U78A U131C  0.382
163. A91U A121U  0.873
164. A121U G135U  1.28
165. A37U C73U G120C  1.31
166. C12A C73A G120C A121U  2.42
167. C8U G10A C124A  2.42
